# T1: Ac-PLG-Hphe-OL-Ahxh-Ac[C14]
# T1 chain: PLGXXL
# T2: Ac-PLG˜LRL-Ahxh-Hynic (not fully specified)
# T2 chain: PLGLRL
# T3: Ac-NGlu-PLG˜Hphe-YL-Ahxh-Ac[C14] (not fully specified)
# T3 chain: XPLGXYL
# T4: Ac-LRY˜Cha-TA-Ahxh-Hynic (not fully specified)
# T4 chain: LRYXTA
# T5: Ac-P-Cit-G-Hphe-LA-Hynic
# T5 chain: PXGXLA
# T6: Ac-PLG˜LLA-Ahxh-Hynic (not fully specified)
# T6 chain: PLGLLA
# T7: Ac-PL-DAla˜LL-Ahxh-Hynic (not fully specified)
# T7 chain: PLALL
# T8: Ac-PLG˜LYA-Ahxh-Hynic (not fully specified)
# T8 chain: PLGLYA
# T9: Ac-PL-NLys˜LL-Ahxh-Ac[C14] (not fully specified)
# T9 chain: PLXLL
# T10: Ac-P-Cit-Cit-LTA-Ahxh-Hynic
# T10 chain: PXXLTA
# T11: Ac-PLG˜Hphe-OLEE-Ahx-Hynic
# T11 chain: PLGXXLEE
# T12: Ac-DArg-P-Aib-G˜Hphe-LA-Ahxh-Hynic (not fully specified)
# T12 chain: RPXGXLA
# T13: Ac-PLG˜S(OBn)-LL-Ahxh-Hynic
# T13 chain: PLGSLL
# T14: Ac-PLG˜LR-Ahxh-Hynic (not fully specified)
# T14 chain: PLGLR
# T15: Ac-P-Cit-G˜Hphe-LA-Ahxh-Hynic (not fully specified)
# T15 chain: PXGXLA
# T16: Ac-P-Cit-G˜Hphe-OL-Ahxh-Ac[C14] (not fully specified)
# T16 chain: PXGXXL
# T17: Ac-Oic-LG˜LL-Ahxh-Ac[C14] (not fully specified)
# T17 chain: XLGLL
# T18: Ac-PLG˜LWA-Ahxh-Ac[C14] (not fully specified)
# T18 chain: PLGLWA
# T19: Ac-P-Cit-G˜Hphe-Cit-L-Ahxh-Hynic (not fully specified)
# T19 chain: PXGXXL
# T20: Ac-PRG˜LLT-Ahxh-Hynic
# T20 chain: PRGLLT
# T21: H-γ-DGlu-PLG-LYT-Ahxh-Hynic (not fully specified)
# T21 chain: EPLGLYT
# T22: NLys-NLys-PLG˜Hphe-YL-Ahxh-Hynic
# T22 chain: XXPLGXYL
# T23: Ac-PR-Cit˜LSA-Ahxh-Hynic
# T23 chain: PRXLSA
# T24: Ac-P-Cit-G˜Abu-LA-Ahxh-Hynic (not fully specified)
# T24 chain: PXGXLA
# T25: Ac-PLG˜S(OBn)-LL-Ahxh-Ac[C14] (not fully specified)
# T25 chain: PLGSLL
# T26: Ac-P-Cit-G˜Chg-LA-Ahxh-Hynic (not fully specified)
# T26 chain: PXGXLA
# T27: Ac-PLG˜Hphe-RLA-Ambh-Hynic
# T27 chain: PLGXRLA
# T28: Ac-PLG˜LHL-Ahxh-Hynic
# T28 chain: PLGLHL
# T29: Ac-P-Cit-G˜Aib-LA-Ahxh-Hynic (not fully specified)
# T29 chain: PXGXLA
# T30: Ac-PLG˜LL-Ahxh-Ac[C14] (not fully specified)
# T30 chain: PLGLL
# T31: Ac-P-NLys-R˜LTA-Ahxh-Hynic (not fully specified)
# T31 chain: PXRLTA
# T32: Ac-POG˜Hphe-LTR-Ahxh-Hynic
# T32 chain: PXGXLTR
# T33: Ac-P-DArg-R˜LTA-Ahxh-Hynic (not fully specified)
# T33 chain: PRRLTA
# T34: Ac-PLG˜Hphe-YL-Ambh-Hynic
# T34 chain: PLGXYL
# T35: Ac-POG˜Hphe-LTR-Ahxh-Ac[C14]
# T35 chain: PXGXLTR
# T36: Ac-P-Cit-G˜Hphe-LQ-Hynic (not fully specified)
# T36 chain: PXGXLQ
# T37: Ac-P-Cit-G˜Hphe-LA-Ahxh-Ac[C14] (not fully specified)
# T37 chain: PXGXLA
# T38: Ac-PLG˜LRA-Ahxh-Hynic (not fully specified)
# T38 chain: PLGLRA
# T39: Ac-PLG˜Hphe-YLR-Ahxh-Hynic
# T39 chain: PLGXYLR
# T40: Ac-PLG˜Hphe-YL-Hynic
# T40 chain: PLGXYL
# T41: Ac-Tic-Cit-G˜Hphe-SA-Ahxh-Hynic
# T41 chain: XXGXSA
# T42: Ac-POG˜Hphe-Smc-T-Ahxh-Hynic
# T42 chain: PXGXXT
# T43: Ac-P-Cha-G˜Smc-HA-Ahxh-Hynic (not fully specified)
# T43 chain: PXGXHA
# T44: Ac-PLG˜Hphe-YL-Ahxh-Hynic (not fully specified)
# T44 chain: PLGXYL
# T45: Ac-P-Cit-G˜S(OBn)-LA-Ahxh-Ac[C14] (not fully specified)
# T45 chain: PXGSLA
# T46: Ac-PRQ˜ITA-Ahxh-Hynic
# T46 chain: PRQITA
# T47: Ac-P-Cha-G˜Hphe-Cit-L-Ahxh-Ac[C14] (not fully specified)
# T47 chain: PXGXXL
# T48: Ac-PLG˜Hphe-R-Ahxh-Ac[C14] (not fully specified)
# T48 chain: PLGXR
# T49: Hynic-ff-Ahx-PLG˜Hphe-OLEE-OH
# T49 chain: FFXPLGXXLEE
# T50: Ac-Inp-Cit-G˜Hphe-LA-Ahxh-Hynic (not fully specified)
# T50 chain: XXGXLA
# T51: Ac-PLG˜LYQ-Ahxh-Ac[C14] (not fully specified)
# T51 chain: PLGLYQ
# Columns and labels:
# [1] = biological target: T1, Ac-PLG-Hphe-OL-Ahxh-Ac[C14]
# [2] = biological target: T2, Ac-PLG˜LRL-Ahxh-Hynic
# [3] = biological target: T3, Ac-NGlu-PLG˜Hphe-YL-Ahxh-Ac[C14]
# [4] = biological target: T4, Ac-LRY˜Cha-TA-Ahxh-Hynic
# [5] = biological target: T5, Ac-P-Cit-G-Hphe-LA-Hynic
# [6] = biological target: T6, Ac-PLG˜LLA-Ahxh-Hynic
# [7] = biological target: T7, Ac-PL-DAla˜LL-Ahxh-Hynic
# [8] = biological target: T8, Ac-PLG˜LYA-Ahxh-Hynic
# [9] = biological target: T9, Ac-PL-NLys˜LL-Ahxh-Ac[C14]
# [10] = biological target: T10, Ac-P-Cit-Cit-LTA-Ahxh-Hynic
# [11] = biological target: T11, Ac-PLG˜Hphe-OLEE-Ahx-Hynic
# [12] = biological target: T12, Ac-DArg-P-Aib-G˜Hphe-LA-Ahxh-Hynic
# [13] = biological target: T13, Ac-PLG˜S(OBn)-LL-Ahxh-Hynic
# [14] = biological target: T14, Ac-PLG˜LR-Ahxh-Hynic
# [15] = biological target: T15, Ac-P-Cit-G˜Hphe-LA-Ahxh-Hynic
# [16] = biological target: T16, Ac-P-Cit-G˜Hphe-OL-Ahxh-Ac[C14]
# [17] = biological target: T17, Ac-Oic-LG˜LL-Ahxh-Ac[C14]
# [18] = biological target: T18, Ac-PLG˜LWA-Ahxh-Ac[C14]
# [19] = biological target: T19, Ac-P-Cit-G˜Hphe-Cit-L-Ahxh-Hynic
# [20] = biological target: T20, Ac-PRG˜LLT-Ahxh-Hynic
# [21] = biological target: T21, H-γ-DGlu-PLG-LYT-Ahxh-Hynic
# [22] = biological target: T22, NLys-NLys-PLG˜Hphe-YL-Ahxh-Hynic
# [23] = biological target: T23, Ac-PR-Cit˜LSA-Ahxh-Hynic
# [24] = biological target: T24, Ac-P-Cit-G˜Abu-LA-Ahxh-Hynic
# [25] = biological target: T25, Ac-PLG˜S(OBn)-LL-Ahxh-Ac[C14]
# [26] = biological target: T26, Ac-P-Cit-G˜Chg-LA-Ahxh-Hynic
# [27] = biological target: T27, Ac-PLG˜Hphe-RLA-Ambh-Hynic
# [28] = biological target: T28, Ac-PLG˜LHL-Ahxh-Hynic
# [29] = biological target: T29, Ac-P-Cit-G˜Aib-LA-Ahxh-Hynic
# [30] = biological target: T30, Ac-PLG˜LL-Ahxh-Ac[C14]
# [31] = biological target: T31, Ac-P-NLys-R˜LTA-Ahxh-Hynic
# [32] = biological target: T32, Ac-POG˜Hphe-LTR-Ahxh-Hynic
# [33] = biological target: T33, Ac-P-DArg-R˜LTA-Ahxh-Hynic
# [34] = biological target: T34, Ac-PLG˜Hphe-YL-Ambh-Hynic
# [35] = biological target: T35, Ac-POG˜Hphe-LTR-Ahxh-Ac[C14]
# [36] = biological target: T36, Ac-P-Cit-G˜Hphe-LQ-Hynic
# [37] = biological target: T37, Ac-P-Cit-G˜Hphe-LA-Ahxh-Ac[C14]
# [38] = biological target: T38, Ac-PLG˜LRA-Ahxh-Hynic
# [39] = biological target: T39, Ac-PLG˜Hphe-YLR-Ahxh-Hynic
# [40] = biological target: T40, Ac-PLG˜Hphe-YL-Hynic
# [41] = biological target: T41, Ac-Tic-Cit-G˜Hphe-SA-Ahxh-Hynic
# [42] = biological target: T42, Ac-POG˜Hphe-Smc-T-Ahxh-Hynic
# [43] = biological target: T43, Ac-P-Cha-G˜Smc-HA-Ahxh-Hynic
# [44] = biological target: T44, Ac-PLG˜Hphe-YL-Ahxh-Hynic
# [45] = biological target: T45, Ac-P-Cit-G˜S(OBn)-LA-Ahxh-Ac[C14]
# [46] = biological target: T46, Ac-PRQ˜ITA-Ahxh-Hynic
# [47] = biological target: T47, Ac-P-Cha-G˜Hphe-Cit-L-Ahxh-Ac[C14]
# [48] = biological target: T48, Ac-PLG˜Hphe-R-Ahxh-Ac[C14]
# [49] = biological target: T49, Hynic-ff-Ahx-PLG˜Hphe-OLEE-OH
# [50] = biological target: T50, Ac-Inp-Cit-G˜Hphe-LA-Ahxh-Hynic
# [51] = biological target: T51, Ac-PLG˜LYQ-Ahxh-Ac[C14]
protein,measurement,setting,value
MMP-2 (protein) APSPIIKFPGDVAPKTDKELAVQYLNTFYGCPKESCNLFVLKDTLKKMQKFFGLPQTGDLDQNTIETMRKPRCGNPDVANYNFFPRKPKWDKNQITYRIIGYTPDLDPETVDDAFARAFQVWSDVTPLRFSRIHDGEADIMINFGRWEHGDGYPFDGKDGLLAHAFAPGTGVGGDSHFDDDELWTLGEGQVVRVKYGNADGEYCKFPFLFNGKEYNSCTDTGRSDGFLWCSTTYNFEKDGKYGFCPHEALFTMGGNAEGQPCKFPFRFQGTSYDSCTTEGRTDGYRWCGTTEDYDRDKKYGFCPETAMSTVGGNSEGAPCVFPFTFLGNKYESCTSAGRSDGKMWCATTANYDDDRKWGFCPDQGYSLFLVAAHEFGHAMGLEHSQDPGALMAPIYTYTKNFRLSQDDIKGIQELYGASPDIDLGTGPTPTLGPVTPEICKQDIVFDGIAQIRGEIFFFKDRFIWRTVTPRDKPMGPLLVATFWPELPEKIDAVYEAPQEEKAVFFAGNEYWIYSASTLERGYPKPLTSLGLPPDVQRVDAAFNWSKNKKTYIFAGDKFWRYNEVKKKMDPGFPKLIADAWNAIPDNLDAVVDLQGGGHSYFFKGAYYLKLENQSLKSVKFGSIKSDWLGC,Kcat/Km,[1],53800 M⁻¹ s⁻¹
same,Kcat/Km,[2],182000 M⁻¹ s⁻¹
same,Kcat/Km,[3],351000 M⁻¹ s⁻¹
same,Kcat/Km,[4],0 M⁻¹ s⁻¹
same,Kcat/Km,[5],> 250000 M⁻¹ s⁻¹
same,Kcat/Km,[6],387000 M⁻¹ s⁻¹
same,Kcat/Km,[7],0 M⁻¹ s⁻¹
same,Kcat/Km,[8],404000 M⁻¹ s⁻¹
same,Kcat/Km,[9],180000 M⁻¹ s⁻¹
same,Kcat/Km,[10],27300 M⁻¹ s⁻¹
same,Kcat/Km,[11],8020 M⁻¹ s⁻¹
same,Kcat/Km,[12],18600 M⁻¹ s⁻¹
same,Kcat/Km,[13],180000 M⁻¹ s⁻¹
same,Kcat/Km,[14],162000 M⁻¹ s⁻¹
same,Kcat/Km,[15],827000 M⁻¹ s⁻¹
same,Kcat/Km,[16],42500 M⁻¹ s⁻¹
same,Kcat/Km,[17],0 M⁻¹ s⁻¹
same,Kcat/Km,[18],712000 M⁻¹ s⁻¹
same,Kcat/Km,[19],42600 M⁻¹ s⁻¹
same,Kcat/Km,[20],98600 M⁻¹ s⁻¹
same,Kcat/Km,[21],153000 M⁻¹ s⁻¹
same,Kcat/Km,[22],26300 M⁻¹ s⁻¹
same,Kcat/Km,[23],14700 M⁻¹ s⁻¹
same,Kcat/Km,[24],17600 M⁻¹ s⁻¹
same,Kcat/Km,[25],473000 M⁻¹ s⁻¹
same,Kcat/Km,[26],14400 M⁻¹ s⁻¹
same,Kcat/Km,[27],197 M⁻¹ s⁻¹
same,Kcat/Km,[28],73700 M⁻¹ s⁻¹
same,Kcat/Km,[29],0 M⁻¹ s⁻¹
same,Kcat/Km,[30],148000 M⁻¹ s⁻¹
same,Kcat/Km,[31],0 M⁻¹ s⁻¹
same,Kcat/Km,[32],> 500000 M⁻¹ s⁻¹
same,Kcat/Km,[33],6880 M⁻¹ s⁻¹
same,Kcat/Km,[34],63200 M⁻¹ s⁻¹
same,Kcat/Km,[35],> 500000 M⁻¹ s⁻¹
same,Kcat/Km,[36],171000 M⁻¹ s⁻¹
same,Kcat/Km,[37],> 750000 M⁻¹ s⁻¹
same,Kcat/Km,[38],> 500000 M⁻¹ s⁻¹
same,Kcat/Km,[39],364000 M⁻¹ s⁻¹
same,Kcat/Km,[40],63200 M⁻¹ s⁻¹
same,Kcat/Km,[41],3100 M⁻¹ s⁻¹
same,Kcat/Km,[42],> 500000 M⁻¹ s⁻¹
same,Kcat/Km,[43],146000 M⁻¹ s⁻¹
same,Kcat/Km,[44],> 100000 M⁻¹ s⁻¹
same,Kcat/Km,[45],> 500000 M⁻¹ s⁻¹
same,Kcat/Km,[46],2400 M⁻¹ s⁻¹
same,Kcat/Km,[47],22600 M⁻¹ s⁻¹
same,Kcat/Km,[48],> 500000 M⁻¹ s⁻¹
same,Kcat/Km,[49],81600 M⁻¹ s⁻¹
same,Kcat/Km,[50],4580 M⁻¹ s⁻¹
same,Kcat/Km,[51],439000 M⁻¹ s⁻¹

# Reference: US20050106100
